Numbering of substitutions follows the chain as printed. In names and notes the source's numbering stands.

What is called Kd is the equilibrium constant for the complex coming apart. A higher Kd goes with a looser complex. As a reminder, the koff is the first-order rate constant of dissociation. Lower therefore signals a long-lived complex. Broadly, the kon is a measure of how fast the partners come together. A low value points to slow association.

In one assay the target is T1, mouse C5 (mouse, UniProt P06684 19-674; P06684 679-1680).
T1 construct: also called purified mouse C5
The assay can be described thus: SPR, anti-Fc capture, pH 7.4; pH 7.4. For orientation: In SPR one partner is held on a chip, and binding of the other changes the refractive index at the surface.

Assay [1] deals with T2, human complement component C5 (human, UniProt P01031 19-673; P01031 678-1676).
T2 construct: mature; Native purified protein; also called human C5; hC5
Nature of the assay: SPR.

The target of assay [2] is T2, human complement component C5. Nature of the assay: SPR, pH 6.0.
The target is the same in assay [3]. Nature of the assay: SPR, pH 7.4.
Assay [4] has as its target T3, human neonatal Fc receptor (FcRn) (human, UniProt P55899 24-297; P61769 21-119, limits assumed).
T3 construct: also called hFcRn; human FcRn
Nature of the assay: SPR, F(ab')2 capture, pH 6.0.
Text: The data were processed with a 1:1 Langmuir model using BIAevaluation 4.1 software (BIAcore AB, Uppsala, Sweden) with ‘double referencing’.

Another assay deals with complement component C1q (UniProt P02745 23-245; P02746 28-253; P02747 29-245). The assay can be described thus: biolayer interferometry.
In assay [5] the target is T4, Human FcγRIIa (CD32a) (human, UniProt P12318 36-218, limits assumed).
T4 construct: Bought reagent; not shown: 6x histidine tag
T4 sequence (looked up): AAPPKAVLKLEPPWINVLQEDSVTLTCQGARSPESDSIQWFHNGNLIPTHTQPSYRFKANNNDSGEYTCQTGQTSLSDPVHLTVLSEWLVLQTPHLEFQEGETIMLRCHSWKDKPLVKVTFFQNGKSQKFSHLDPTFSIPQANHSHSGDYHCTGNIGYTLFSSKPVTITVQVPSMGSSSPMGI
The assay can be described thus: SPR, antibody immobilized, monomeric FcγR injected, steady state, pH 7.4.

Assay [6] concerns the target T4, Human FcγRIIa (CD32a). The assay can be described thus: ELISA, multimeric antibody immune complexes on His-tagged FcγRIIa; reference not named (IgG1 control implied).
Experimental: Microtiter plates pre-coated with Ni-NTA (Qiagen) were incubated with 50 μL/well of 6× histidine-tagged human FcγRs (FcγRI, FcγRIIa, FcγRIIb/c, FcγRIIIa or FcγRIIIb), at a receptor concentration of 5 μg/mL in PBS, overnight at 4° C. The plate was then washed 3 times with PBS/0.05% Tween-20. After washing, 50 μL of antibody complexes in PBS/0.05% Tween-20 were incubated in the plate for 60 min at room temperature (RT). After washing the plate with PBS/0.05% Tween-20, 50 μL of streptavidin-HRP (Invitrogen) in PBS/0.05% Tween-20 was added to the plate and incubated for 60 min at RT. Following this incubation and washes, 75 μL of TMB-ELISA substrate (3,3′,5,5′-tetramethylbenzidine, Thermo Scientific) was added. The reaction was stopped with 75 μL of 2 M H₂SO₄, and the absorbance read at 450 nm.
Samples were run in duplicate and data were presented as mean values. […] The absorbance at 450 nm of each concentration of antibody immune complex or in the absence of antibody immune complexes plotted as a graphical representation.
For assay [7], the target named is T5, Human FcγRIIIb (CD16b) (human, UniProt O75015 17-200, limits assumed).
T5 construct: Bought reagent; not shown: 6x histidine tag
The assay can be described thus: SPR, antibody immobilized, monomeric FcγR injected, steady state, pH 7.4; SPR, monomeric FcγR.

In assay [8] the target is T6, Human FcγRIIIa (CD16a) (human, UniProt P08637 17-208, limits assumed).
T6 construct: Bought reagent; not shown: 6x histidine tag
Described as above.

Assay [9] concerns the target T7, Human FcγRIIb/c (CD32b/c) (human, UniProt P31994 46-217, limits assumed).
T7 construct: Bought reagent; not shown: 6x histidine tag
T7 sequence (looked up): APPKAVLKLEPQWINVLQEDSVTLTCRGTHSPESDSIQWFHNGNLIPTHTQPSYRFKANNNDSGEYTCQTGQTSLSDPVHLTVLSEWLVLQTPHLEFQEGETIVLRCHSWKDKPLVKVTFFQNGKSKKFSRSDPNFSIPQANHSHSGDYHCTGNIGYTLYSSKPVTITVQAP
The assay is described as above.

Assay [10] concerns the target T8, Human FcγRI (CD64) (human, UniProt P12314 16-288, limits assumed).
T8 construct: Bought reagent; also called FcγR1; not shown: 6x histidine tag
Described as above.

Assay [11] has as its target T5, Human FcγRIIIb (CD16b). Nature of the assay: SPR, antibody immobilized, monomeric FcγR injected, steady state, pH 7.4.
Experimental: (§1) A second flow cell was used as a reference surface. Concentrations of FcγRs diluted in running buffer (HBS-EP, pH 7.4) were injected on both cells. The surface was regenerated each cycle with 20 mM HCl, 0.01% P20. The data was analyzed using a steady state affinity model in BIAevaluation 4.1 software (BIAcore AB, Uppsala, Sweden) with ‘double referencing’.
Assay [12] has as its target T6, Human FcγRIIIa (CD16a). The description is as above.
Experimental: as §1
In assay [13] the target is T7, Human FcγRIIb/c (CD32b/c). Described as above.
Experimental: as §1
For assay [14], the target named is T8, Human FcγRI (CD64). Nature of the assay: SPR, antibody immobilized, single cycle kinetics, pH 7.4; Table 16 cell under the head KD [µM].
Experimental: The antibody was diluted in 10 mM sodium acetate at pH 5.0 and directly immobilized on one flow cell of a CM5 chip by amine coupling. A second flow cell was used as a reference surface. Concentrations of FcγR1 diluted in running buffer (HBS-EP, pH 7.4) were injected on both cells. This assay required no regeneration. The data was analyzed using a titration kinetics 1:1 model in BIAevaluation 4.1 (Biacore AB, Uppsala, Sweden) software with ‘double referencing’.
The target in assay [15] is T9, human hypercalcemia of malignancy peptide, amino acid residues 1-34 (human, UniProt P12272 37-70).
T9 construct: range 1-34; Negative control material on UV-resin spot slides; also called PTHrP 1-34
The assay can be described thus: immunofluorescent staining of UV-resin spot slides.

T1 sequence (P06684 19-674 limits assumed, chain 1 of 2): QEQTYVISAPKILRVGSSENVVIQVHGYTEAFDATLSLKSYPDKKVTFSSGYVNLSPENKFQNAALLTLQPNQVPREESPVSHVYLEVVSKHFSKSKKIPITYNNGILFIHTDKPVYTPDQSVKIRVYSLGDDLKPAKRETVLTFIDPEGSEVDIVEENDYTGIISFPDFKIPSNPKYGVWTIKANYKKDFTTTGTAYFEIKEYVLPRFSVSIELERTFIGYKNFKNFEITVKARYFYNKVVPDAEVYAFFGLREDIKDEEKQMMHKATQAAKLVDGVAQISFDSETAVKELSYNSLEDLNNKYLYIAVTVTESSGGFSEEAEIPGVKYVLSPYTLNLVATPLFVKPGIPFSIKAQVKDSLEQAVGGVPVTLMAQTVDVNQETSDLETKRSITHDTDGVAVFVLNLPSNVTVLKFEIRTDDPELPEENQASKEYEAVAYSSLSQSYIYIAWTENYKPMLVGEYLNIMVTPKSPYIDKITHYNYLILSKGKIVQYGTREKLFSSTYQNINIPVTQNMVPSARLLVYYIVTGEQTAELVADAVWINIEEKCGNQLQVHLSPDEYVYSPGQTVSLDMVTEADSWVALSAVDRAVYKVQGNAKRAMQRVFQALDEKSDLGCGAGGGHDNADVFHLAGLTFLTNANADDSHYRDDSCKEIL
T1 sequence (P06684 679-1680 limits assumed, chain 2 of 2): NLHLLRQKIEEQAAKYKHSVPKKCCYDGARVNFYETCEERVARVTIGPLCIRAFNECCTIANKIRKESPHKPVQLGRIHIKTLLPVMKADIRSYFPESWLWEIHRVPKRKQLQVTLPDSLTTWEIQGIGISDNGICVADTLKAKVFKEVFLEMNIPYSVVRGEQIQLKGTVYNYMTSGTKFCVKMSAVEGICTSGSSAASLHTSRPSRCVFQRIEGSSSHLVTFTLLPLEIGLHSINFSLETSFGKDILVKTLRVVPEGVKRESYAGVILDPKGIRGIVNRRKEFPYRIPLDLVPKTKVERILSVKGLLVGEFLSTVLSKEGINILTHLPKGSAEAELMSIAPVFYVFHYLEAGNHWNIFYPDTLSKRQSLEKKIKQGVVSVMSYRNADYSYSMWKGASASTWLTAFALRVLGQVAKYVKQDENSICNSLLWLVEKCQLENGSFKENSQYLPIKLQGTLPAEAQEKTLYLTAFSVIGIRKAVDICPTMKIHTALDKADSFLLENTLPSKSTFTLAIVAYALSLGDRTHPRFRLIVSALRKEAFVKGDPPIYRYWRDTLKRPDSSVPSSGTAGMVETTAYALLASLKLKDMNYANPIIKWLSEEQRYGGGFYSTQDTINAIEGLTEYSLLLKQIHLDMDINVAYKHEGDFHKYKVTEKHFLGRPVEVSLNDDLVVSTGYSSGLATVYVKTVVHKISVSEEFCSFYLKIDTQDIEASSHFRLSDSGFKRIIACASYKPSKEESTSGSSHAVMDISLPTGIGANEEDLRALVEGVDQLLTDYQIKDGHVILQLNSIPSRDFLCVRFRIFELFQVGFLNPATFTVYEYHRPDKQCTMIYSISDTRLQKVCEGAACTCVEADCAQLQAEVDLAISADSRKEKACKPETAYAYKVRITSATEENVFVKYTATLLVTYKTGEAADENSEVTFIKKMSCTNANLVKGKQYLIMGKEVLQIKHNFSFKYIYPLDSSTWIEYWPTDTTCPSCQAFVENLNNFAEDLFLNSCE
T6 sequence (P08637 17-208 limits assumed): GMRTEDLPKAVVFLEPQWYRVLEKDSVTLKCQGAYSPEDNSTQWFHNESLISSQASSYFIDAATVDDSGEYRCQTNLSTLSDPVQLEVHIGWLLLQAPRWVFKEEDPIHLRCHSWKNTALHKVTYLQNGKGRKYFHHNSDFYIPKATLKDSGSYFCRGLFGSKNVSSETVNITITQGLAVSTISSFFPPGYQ
complement component C1q, sequence (P02745 23-245, chain 1 of 3): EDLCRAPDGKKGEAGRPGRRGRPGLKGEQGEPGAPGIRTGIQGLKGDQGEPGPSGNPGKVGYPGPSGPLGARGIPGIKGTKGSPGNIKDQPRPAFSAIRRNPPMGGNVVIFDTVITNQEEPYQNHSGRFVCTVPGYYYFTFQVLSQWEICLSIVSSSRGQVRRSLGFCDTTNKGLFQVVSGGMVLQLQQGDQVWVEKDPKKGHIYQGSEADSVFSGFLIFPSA
complement component C1q, sequence (P02746 28-253, chain 2 of 3): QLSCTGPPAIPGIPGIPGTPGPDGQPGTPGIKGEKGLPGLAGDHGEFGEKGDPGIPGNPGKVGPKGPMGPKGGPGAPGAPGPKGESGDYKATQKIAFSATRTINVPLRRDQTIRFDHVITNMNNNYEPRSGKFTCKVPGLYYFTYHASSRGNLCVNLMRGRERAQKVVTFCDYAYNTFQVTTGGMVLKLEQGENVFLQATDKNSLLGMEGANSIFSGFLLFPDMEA
complement component C1q, sequence (P02747 29-245, chain 3 of 3): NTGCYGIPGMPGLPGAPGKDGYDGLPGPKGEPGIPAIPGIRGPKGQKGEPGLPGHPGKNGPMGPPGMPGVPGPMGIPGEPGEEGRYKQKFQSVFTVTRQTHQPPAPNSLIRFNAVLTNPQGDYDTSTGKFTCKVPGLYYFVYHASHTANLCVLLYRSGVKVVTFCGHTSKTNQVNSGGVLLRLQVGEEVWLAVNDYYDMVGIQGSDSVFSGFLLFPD
T8 sequence (P12314 16-288 limits assumed): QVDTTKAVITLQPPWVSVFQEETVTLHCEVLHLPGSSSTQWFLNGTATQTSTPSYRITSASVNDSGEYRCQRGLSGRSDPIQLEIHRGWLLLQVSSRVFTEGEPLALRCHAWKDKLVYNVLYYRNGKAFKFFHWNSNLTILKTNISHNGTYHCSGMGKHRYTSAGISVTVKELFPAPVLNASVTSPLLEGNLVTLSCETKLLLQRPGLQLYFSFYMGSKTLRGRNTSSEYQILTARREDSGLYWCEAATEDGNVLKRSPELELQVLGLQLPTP
T5 sequence (O75015 17-200 limits assumed): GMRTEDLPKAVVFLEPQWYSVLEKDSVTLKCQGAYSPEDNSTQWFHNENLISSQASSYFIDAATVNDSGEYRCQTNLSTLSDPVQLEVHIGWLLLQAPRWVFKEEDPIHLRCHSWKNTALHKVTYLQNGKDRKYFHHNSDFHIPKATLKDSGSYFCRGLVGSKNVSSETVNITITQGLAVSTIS
T3 sequence (P55899 24-297 limits assumed, chain 1 of 2): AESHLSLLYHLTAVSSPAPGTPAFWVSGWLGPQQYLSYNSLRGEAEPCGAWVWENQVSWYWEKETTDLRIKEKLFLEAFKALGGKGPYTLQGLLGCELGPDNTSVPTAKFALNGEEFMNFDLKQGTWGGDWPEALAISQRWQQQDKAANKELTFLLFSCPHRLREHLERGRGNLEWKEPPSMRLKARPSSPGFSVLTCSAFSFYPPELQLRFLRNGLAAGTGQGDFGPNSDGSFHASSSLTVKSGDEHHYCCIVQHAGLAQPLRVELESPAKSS
T3 sequence (P61769 21-119 limits assumed, chain 2 of 2): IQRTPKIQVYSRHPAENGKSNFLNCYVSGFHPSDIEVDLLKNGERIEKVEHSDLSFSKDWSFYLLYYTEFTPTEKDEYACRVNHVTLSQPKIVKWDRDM
Experimental for mouse C5: Briefly, anti-human Fc (KPL, catalogue number: 01-10-20) diluted to 0.1 mg/mL in 10 mM sodium acetate pH 5.0, was immobilized on two flow cells of a CM5 chip for 8 minutes by amine coupling. The antibodies were diluted to 0.25 μg/mL in running buffer (HBS-EP; 0.01 M HEPES pH 7.4, 0.15 M NaCl, 3 mM EDTA, 0.005% v/v Surfactant P20; GE Life Sciences, catalogue number: BR1001-88). The diluted antibody was then injected on one flow cell followed by an injection of 6 nM mouse C5 on both cells. The second flow cell was used as a reference surface. The binding was evaluated at pH 7.4 and pH 6.0. The surface was regenerated each time with 20 mM HCl, 0.01% P20. The data was processed with a 1:1 Langmuir model using BIAevaluation 4.1 software with ‘double referencing’.

B1: BHL006 (antibody, human IgG2, kappa)
heavy: QVQLQQPGAELVRPGTSVKLSCKASGYTFTSSWMHWVKQRPGQGLEWIGVIDPHDSYTNYNQKFKGKATLTVDTSSSTAYMQLSSLTSEDSAVYYCARGGGSSYNRYFDVWGTGTTVTVSSASTKGPSVFPLAPCSRSTSESTAALGCLVKDYFPEPVTVSWNSGALTSGVHTFPAVLQSSGLYSLSSVVTVPSSNFGTQTYTCNVDHKPSNTKVDKTVERKCCVECPPCPAPPVAGPSVFLFPPKPKDTLMISRTPEVTCVVVDVSQEDPEVQFNWYVDGVEVHNAKTKPREEQFNSTYRVVSVLTVLHQDWLNGKEYKCKVSNKGLPSSIEKTISKAKGQPREPQVYTLPPSQEEMTKNQVSLTCLVKGFYPSDIAVEWESNGQPENNYKTTPPVLDSDGSFFLYSRLTVDKSRWQEGNVFSCSVMHEALHNHYTQKSLSLSLGK
light: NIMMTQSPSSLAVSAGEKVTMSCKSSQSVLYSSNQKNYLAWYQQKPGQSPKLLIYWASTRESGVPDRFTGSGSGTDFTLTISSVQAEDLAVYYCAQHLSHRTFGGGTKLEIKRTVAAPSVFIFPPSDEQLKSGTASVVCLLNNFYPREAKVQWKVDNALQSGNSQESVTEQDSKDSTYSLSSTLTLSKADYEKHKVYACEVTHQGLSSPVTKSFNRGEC
notes: BHL011 with three histidine substitutions in the murine variable regions; also called pH-dependent variant of BHL011
In the case of B1, in the assay with mouse C5, the Kd came out at 3.49 nM, the koff is 0.00102 s⁻¹ and the kon turned out to be 293000 M⁻¹ s⁻¹.

B2: BHL009 (antibody, human IgG2, kappa)
heavy: B1 heavy with M428L, N434S
light: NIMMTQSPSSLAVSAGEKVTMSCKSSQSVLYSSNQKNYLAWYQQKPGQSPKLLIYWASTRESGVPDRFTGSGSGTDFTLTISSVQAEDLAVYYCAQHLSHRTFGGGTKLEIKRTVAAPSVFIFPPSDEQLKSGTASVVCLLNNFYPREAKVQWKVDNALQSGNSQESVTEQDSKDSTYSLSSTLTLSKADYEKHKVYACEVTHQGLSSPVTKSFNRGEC
notes: BHL006 with M428L, N434S in the human heavy chain constant region
In the assay with mouse C5, B2 had a Kd of 4.19 nM, a koff of 0.00109 s⁻¹ and a kon of 261000 M⁻¹ s⁻¹.

B3: EHL004 (antibody, V domains shown)
VH: QVQLVQSGAEVKKPGASVKVSCKASGYIFSNYWIQWVRQAPGQGLEWMGEILPGSGHTEYTENFKDRVTMTRDTSTSTVYMELSSLRSEDTAVYYCARYFFGSSPNWYFDVWGQGTLVTVSS
VL: DIQMTQSPSSLSASVGDRVTITCGASENIYHALNWYQQKPGKAPKLLIYGATNLADGVPSRFSGSGSGTDFTLTISSLQPEDFATYYCQNVLNTPLTFGQGTKVEIK
notes: The VH cell prints only 'S57H'
Take B3: in [1], the “ratio of KD at pH 6.0/pH 7.4” value was determined as 2770. The results for the Kd in assay [2] and in assay [3] were 374 nM and 0.135 nM, respectively.

B4: BNJ441 (antibody, human IgG2, kappa)
heavy: QVQLVQSGAEVKKPGASVKVSCKASGHIFSNYWIQWVRQAPGQGLEWMGEILPGSGHTEYTENFKDRVTMTRDTSTSTVYMELSSLRSEDTAVYYCARYFFGSSPNWYFDVWGQGTLVTVSSASTKGPSVFPLAPCSRSTSESTAALGCLVKDYFPEPVTVSWNSGALTSGVHTFPAVLQSSGLYSLSSVVTVPSSNFGTQTYTCNVDHKPSNTKVDKTVERKCCVECPPCPAPPVAGPSVFLFPPKPKDTLMISRTPEVTCVVVDVSQEDPEVQFNWYVDGVEVHNAKTKPREEQFNSTYRVVSVLTVLHQDWLNGKEYKCKVSNKGLPSSIEKTISKAKGQPREPQVYTLPPSQEEMTKNQVSLTCLVKGFYPSDIAVEWESNGQPENNYKTTPPVLDSDGSFFLYSRLTVDKSRWQEGNVFSCSVLHEALHSHYTQKSLSLSLGK
light: DIQMTQSPSSLSASVGDRVTITCGASENIYGALNWYQQKPGKAPKLLIYGATNLADGVPSRFSGSGSGTDFTLTISSLQPEDFATYYCQNVLNTPLTFGQGTKVEIKRTVAAPSVFIFPPSDEQLKSGTASVVCLLNNFYPREAKVQWKVDNALQSGNSQESVTEQDSKDSTYSLSSTLTLSKADYEKHKVYACEVTHQGLSSPVTKSFNRGEC
notes: IgG2/G4, kappa; also called BNJ441 antibody; BNJ441 engineering batch
Take B4: the “fold increase in affinity compared to eculizumab” value in assay [4] was ~10 fold. Moreover, in the assay with complement component C1q, the binding result is “no binding”. Moreover, the Kd with Human FcγRIIa (CD32a) [5] was determined as 2310 nM; in the assay with Human FcγRIIIb (CD16b) [7], 3330 nM; with Human FcγRIIIa (CD16a) [8], 7230 nM; in [9], 8090 nM; with Human FcγRI (CD64) [10], 3750 nM. The molecule further had a fold weaker association in the assay with Human FcγRIIa (CD32a) [6] of 4 fold.

B5: h5G1.1-IgG1 (antibody)
heavy: not shown
light: B4 light
notes: IgG1 isotype antibody with the same humanized variable region as eculizumab; light chain identical to that of eculizumab and BNJ441; also called h5G1.1-hG1; IgG1 isotype control
Take B5: the Kd with Human FcγRIIIb (CD16b) [11] was determined as 1890 nM; with Human FcγRIIIa (CD16a) [12], 850 nM; with Human FcγRIIa (CD32a) [5], 800 nM; in assay [13], 3060 nM; with Human FcγRI (CD64) [14], 0.123 nM.

B6: BNJ441-FITC (antibody, human IgG2, kappa)
heavy: B4 heavy
light: B4 light
modifications: fluoresceinated (FITC); sites not stated
notes: also called fluoresceinated BNJ441
As for B6, the binding result in assay [15] is given as “no binding”.

B7: eculizumab (antibody, human IgG2, kappa)
heavy: B4 heavy with H27Y, H57S, L429M, S435N
light: B4 light
notes: Humanized anti-human C5 antibody, hybrid human IgG2/G4 constant region, human kappa light chain; also called Ec293F
Regarding B7, in the assay with complement component C1q, the binding result was “no binding”. Further, the Kd in the assay with Human FcγRIIa (CD32a) [5] was 2580 nM; in assay [9], 9840 nM. In addition, the fold weaker association with Human FcγRIIa (CD32a) [6] came to 8 fold.
